Assay results: patent US20260183393A1, “IMMUNOSUPPRESSANT-RESISTANT MODIFIED ALLOGENEIC MODIFIED IMMUNE CELLS AND METHODS FOR USE THEREOF” (Beam Therapeutics Inc., priority 2023, published 2026)
“Also recorded” adds a separate entry of the source.

Tests used:
FKBP1A polynucleotide = experiment: Base editing of FKBP1A in primary human T cells, next-generation sequencing; format: cell-based; details: ABE8.20m mRNA and sgRNA electroporated into activated primary human T cells; NGS
Source text: FIG. 3 provides a bar graph showing maximum A to G and C to T base editing within an FKBP1A polynucleotide achieved using base editor systems containing one of the guide polynucleotides indicated along the x-axis (see Table 1 for nucleotide sequences) and either an adenosine deaminase base editor (ABE) or a cytidine deaminase base editor (CBE), as indicated. The ABE was ABE8.20m and the CBE was rBE4. Primary human T cells were thawed and activated in vitro using an anti-CD3/CD28/CD2 reagent. On day 2 following contacting with the reagent, the T cells were washed and resuspended in P3 Buffer (Lonza) and plated in 96-well electroporation plates containing 2 μg ABE8.20m or rBE4 (CBE) and 2 μg of the indicated guide polynucleotide targeting the FKBP1A (FKBP prolyl isomerase 1A) polynucleotide. Plates were electroporated using a DH-102 setting on a Lonza Nucleofector™ 96-well plate unit. The electroporated cells were incubated for 3 days. […]
Healthy donor adult human leukopaks were commercially obtained from HemaCare (Charles River). […] Two-days post-activation, T cells were counted, washed with sterile PBS (Gibco) and resuspended in P3 buffer (Lonza) at 10^7 cells mL^−1. […]

19CAR-T cells = experiment: CAR-T cell proliferation assay; format: cell-based, human; details: 100 nM rapamycin
Source text: Primary human T cells were activated using an anti-CD3/CD28/CD2 reagent. Two-days after being contacted with the reagent, the T cells were edited using a base editor system containing the guide polynucleotide TSBT×1538 and the base editor ABE8.20m using electroporation, as described above. Following electroporation, both the T cells were transduced with a lentiviral vector encoding an anti-CD19 CAR (19CAR) and allowed to expand in culture for approximately 7 days before being cryopreserved for later analysis. Unedited anti-CD19 CAR-T cells were prepared as a negative control. The 19CAR-T cells were then thawed from cryopreservation and rested overnight before being stimulated using dynabeads coated with recombinant human CD19 protein-coated at a bead-to-cell ratio of 1:1. The T cells were cultured in the presence of 100 nM of the immunosuppressant rapamycin or dimethylsulfoxide (DMSO) as a control for 6 days. The total number of T cells were enumerated using a NucleoCounter NC-200™ automated cell counter.
Primary human T cells were activated using an anti-CD3/CD28/CD2 reagent. Two days after being contacted with the reagent, the T cells were edited using a base editor system containing the guide polynucleotide TSBT×1538 and the base editor ABE8.20m using the electroporation protocol described above. Both edited and unedited T cells were transduced with a lentiviral vector encoding an anti-CD19 CAR (19CAR) and allowed to expand in culture for approximately 7 days before being cryopreserved for later analysis. Unedited 19CAR-T cells were used as a control. For analysis, the 19CAR-T cells were thawed and rested for 72 hours before labeling using a CellTrace™ Far Red (CTFR) dye. After CTFR labeling, the 19CAR-T cells were stimulated using an Immunocult™ Human CD3/CD28/CD2 universal T cell activator in the presence of 100 nM of the immunosuppressant agent rapamycin or in the presence of DMSO (control) and allowed to incubate for an additional 3 days. Following the three-day incubation, the T cells were analyzed using flow cytometry to measure dilution of CTFR dye as an indicator of cell proliferation.
The following day, T cells were washed, counted and 1×10^4 cells were seeded in triplicate into a 96-well flat bottom plate alone or with 1×10^4 JeKo-1.GFP^+ tumor cells. […] On day 7, samples were analyzed by flow cytometry and 19CAR-T cells were enumerated using CountBright Counting Beads (Thermo Fisher Scientific) following the manufacturer's protocol.

FKBP1A protein = experiment: Western blot of FKBP1A protein in edited T cells; format: cell-based, human; details: T cells edited with ABE8.20m and TSBT×1538 sgRNA
Description: Primary human T cells were activated with anti-CD3/CD28/CD2 reagent. On day 2 following contacting with the reagent, the T cells were contacted with the TSBT×1538 sgRNA and ABE8.20m and subsequently incubated for approximately 5 days. Unedited cells were used as a negative control. Following the approximately 5-day incubation, the cells were harvested and cell-associated protein was extracted to be evaluated in the Western blot analysis. Protein samples from the edited and unedited cells were contacted with a rabbit anti-FKBP1A or mouse anti-GAPDH (control used to normalize protein concentrations) antibodies, followed by staining with secondary anti-rabbit (HRP) and anti-mouse (NIR) antibodies, respectively. Protein was analyzed using the Jess automated Western blot analysis device available from ProteinSimple.

B1: TSBT×1538: guide polynucleotide targeting FKBP1A, SEQ ID NO: 501 (nucleic acid)
guide: CTCACCGTCTCCTGGGGAGAGTTTTAGAGCTAGAAATAGCAAGTTAAAATAAGGCTAGTCCGTTATCAACTTGAAAAAGTGGCACCGAGTCGGTGCTTTT
modifications: chemistry not given here
mean on-target genomic editing efficiency (FKBP1A polynucleotide): 93.7%
cell proliferation in response to a universal T cell activator (19CAR-T cells; 19CAR-T cells edited with ABE8.20m and the guide, 3 days, CTFR dilution): improved cell proliferation
proliferation in the presence of rapamycin (19CAR-T cells; anti-CD19 CAR-T cells edited with ABE8.20m and the guide, CD19-coated dynabeads 1:1, 6 days): improved proliferation
FKBP1A protein expression (FKBP1A protein): knock-out of FKBP1A protein expression; also recorded: reduced protein expression
